Experimental data taken from article PMC13360575.
Residue numbers refer to the chain shown, from its start.

B1: Fab fragment of a high-affinity variant of clone 2.1 (2.1^hi) (Fab, V domains shown)
VH: EVQLQESGPSLVKPSQTLSLTCSVTGASITSGYWNWIRKFPGNRLEYMGYISYSGGTYYNPSLKSRISITRDTSKNQYYLQLNSVTTEDTATYYCARDFDVWGAGTTVTVSS
VL: DIVMTQSQKFMSTSVGDRVSVTCKASQNVGTNVGWFQQKPGQSPKSLIYSASYRYSGVPDRFTGSGSGTDFTLTISNVQSEDLAEYFCHQYYSYPLTFGSGTKLEIK
B2: clone 2.1 Fab L_10 (affinity ladder) (Fab, V domains shown)
VH: B1 VH with S10G, A27D, R44K, G56S, I67V, Y78H, A96G
VL: B1 VL with G34A, F36Y, S46A, H89Q, Y92K
B3: clone 2.1 Fab TA_4 (Fab, V domains shown)
VH: B1 VH with A27D, R44K, G56S
VL: B1 VL with G34V, F36Y, S46A, H89Q, Y92D
B4: clone 2.1 Fab TA_1 (Fab, V domains shown)
VH: B1 VH with A27D, Y53F, G56S
VL: B1 VL with F36Y, S46A, H89Q, Y92N
B5: clone 2.1 Fab CB_05 (clonal burst) (Fab, V domains shown)
VH: B1 VH with A27D, R44K, G56S, A96G
VL: B1 VL with G34A, F36Y, S46A, H89Q, Y92N
B6: clone 2.1 Fab CB_10 (clonal burst) (Fab, V domains shown)
VH: B1 VH with A27D, R44K, G56S, A96G
VL: B1 VL with F36Y, S46A, H89Q, Y92N, S93R
B7: clone 2.1 Fab TA_2 (Fab, V domains shown)
VH: B1 VH with A27D, R44K, G56S
VL: B1 VL with F36Y, S46A, H89Q, Y92N
B8: clone 2.1 Fab L_11 (affinity ladder) (Fab, V domains shown)
VH: B1 VH with A27D, R44K, G56S, K75T, Y94F
VL: B1 VL with F36Y, S46A, H89Q, Y92N
B9: clone 2.1 Fab TA_3 (Fab, V domains shown)
VH: B1 VH with A27D, R44K, G56S
VL: B1 VL with G34V, F36Y, S46A, H89Q, Y92N
B10: clone 2.1 Fab CB_07 (clonal burst) (Fab, V domains shown)
VH: B1 VH with A27D, R44K, G56S, A96G
VL: B1 VL with G34A, F36Y, S46A, H89Q, Y92K

What follows are binders tested against chicken IgY (chicken) (assay: BLI; Octet, SAX (streptavidin) biosensors; Fabs at multiple concentrations; KD from a kinetic 1:1 model, global fits (R^2 > 0.98); as described previously (ref. 7)).

B1 gave a Kd of 0.062 nM.

What follows are binders tested against chicken IgY (chicken) (assay: BLI; Octet, SAX (streptavidin) biosensors; recombinant Fabs against IgY; KD from a kinetic 1:1 model, global fit over multiple concentrations (partial fits averaged for 3 low-affinity Fabs)).

First: B2
Second: B3
The Kd of the first is 59-fold lower: 1.21 nM for the first, 71.1 nM for the second.

Going from B4 to B5, the Kd rises from 2.84 nM to 6.76 nM (2.4-fold).

Going from B6 to B7, the Kd rises from 0.127 nM to 4.21 nM (33-fold). The first binds more tightly here.

First: B8
Second: B9
The Kd of the first is 30-fold lower: 1.83 nM for the first, 54 nM for the second. The first binds more tightly here.

For B10, the Kd was 1.34 nM.

Going from B2 to B3, the koff rises from 0.000462 s⁻¹ to 0.00792 s⁻¹ (17-fold).

First: B4
Second: B5
The koff of the first is 4.2-fold lower: 0.000359 s⁻¹ for the first, 0.00149 s⁻¹ for the second.

First: B6
Second: B7
The koff of the first is 10-fold lower: 3.73e-05 s⁻¹ for the first, 0.000383 s⁻¹ for the second.

First: B8
Second: B9
The koff of the first is 70-fold lower: 0.00011 s⁻¹ for the first, 0.00767 s⁻¹ for the second.

In the case of B10, the koff is reported as 0.000349 s⁻¹.

Going from B2 to B3, the kon falls from 381000 M⁻¹ s⁻¹ to 111000 M⁻¹ s⁻¹ (3.4-fold).

Compared with B4, B5 is 1.8-fold higher in kon: 126000 M⁻¹ s⁻¹ for the first, 221000 M⁻¹ s⁻¹ for the second.

Compared with B6, B7 is 3.2-fold lower in kon: 294000 M⁻¹ s⁻¹ for the first, 90900 M⁻¹ s⁻¹ for the second.

First: B8
Second: B9
The kon of the first is 2.4-fold lower: 59800 M⁻¹ s⁻¹ for the first, 142000 M⁻¹ s⁻¹ for the second.

For B10, the kon was 261000 M⁻¹ s⁻¹.
